US20230340127A1 (SANFORD BURNHAM PREBYS MEDICAL DISCOVERY INSTITUTE, published 2023)

B2: CUL4B (endogenous) (other, UniProt Q13620 1-913, looked up)
chain: MMSQSSGSGDGNDDEATTSKDGGFSSPSPSAAAAAQEVRSATDGNTSTTPPTSAKKRKLNSSSSSSSNSSNEREDFDSTSSSSSTPPLQPRDSASPSTSSFCLGVSVAASSHVPIQKKLRFEDTLEFVGFDAKMAEESSSSSSSSSPTAATSQQQQLKNKSILISSVASVHHANGLAKSSTTVSSFANSKPGSAKKLVIKNFKDKPKLPENYTDETWQKLKEAVEAIQNSTSIKYNLEELYQAVENLCSYKISANLYKQLRQICEDHIKAQIHQFREDSLDSVLFLKKIDRCWQNHCRQMIMIRSIFLFLDRTYVLQNSMLPSIWDMGLELFRAHIISDQKVQNKTIDGILLLIERERNGEAIDRSLLRSLLSMLSDLQIYQDSFEQRFLEETNRLYAAEGQKLMQEREVPEYLHHVNKRLEEEADRLITYLDQTTQKSLIATVEKQLLGEHLTAILQKGLNNLLDENRIQDLSLLYQLFSRVRGGVQVLLQQWIEYIKAFGSTIVINPEKDKTMVQELLDFKDKVDHIIDICFLKNEKFINAMKEAFETFINKRPNKPAELIAKYVDSKLRAGNKEATDEELEKMLDKIMIIFRFIYGKDVFEAFYKKDLAKRLLVGKSASVDAEKSMLSKLKHECGAAFTSKLEGMFKDMELSKDIMIQFKQYMQNQNVPGNIELTVNILTMGYWPTYVPMEVHLPPEMVKLQEIFKTFYLGKHSGRKLQWQSTLGHCVLKAEFKEGKKELQVSLFQTLVLLMFNEGEEFSLEEIKQATGIEDGELRRTLQSLACGKARVLAKNPKGKDIEDGDKFICNDDFKHKLFRIKINQIQMKETVEEQASTTERVFQDRQYQIDAAIVRIMKMRKTLSHNLLVSEVYNQLKFPVKPADLKKRIESLIDRDYMERDKENPNQYNYIA
notes: also called CRL4 component

Experiments:
[1] = biological target: T1, RBBP7 (endogenous) (UniProt Q16576 2-425); assay: co-IP of endogenous FBXO44 in MDA-MB-231 cells, immunoblot (FIG. 4A)
T1 construct: also called DCAF RBBP7
T1 sequence (Q16576 2-425 limits assumed): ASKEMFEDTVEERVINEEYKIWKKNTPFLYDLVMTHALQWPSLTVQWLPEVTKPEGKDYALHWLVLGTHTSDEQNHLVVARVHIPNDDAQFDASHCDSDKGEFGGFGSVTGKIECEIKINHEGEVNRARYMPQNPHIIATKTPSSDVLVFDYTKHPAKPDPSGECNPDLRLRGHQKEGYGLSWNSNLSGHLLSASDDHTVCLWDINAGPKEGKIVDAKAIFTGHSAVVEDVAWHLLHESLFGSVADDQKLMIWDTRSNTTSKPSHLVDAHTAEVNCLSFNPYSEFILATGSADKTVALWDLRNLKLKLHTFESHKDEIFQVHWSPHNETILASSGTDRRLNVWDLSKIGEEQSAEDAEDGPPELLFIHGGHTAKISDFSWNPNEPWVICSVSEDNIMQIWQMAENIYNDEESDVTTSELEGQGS

[2] = biological target: T2, RBBP4 (endogenous) (UniProt Q09028 2-425); assay: as above
T2 construct: also called DCAF RBBP4
T2 sequence (Q09028 2-425 limits assumed): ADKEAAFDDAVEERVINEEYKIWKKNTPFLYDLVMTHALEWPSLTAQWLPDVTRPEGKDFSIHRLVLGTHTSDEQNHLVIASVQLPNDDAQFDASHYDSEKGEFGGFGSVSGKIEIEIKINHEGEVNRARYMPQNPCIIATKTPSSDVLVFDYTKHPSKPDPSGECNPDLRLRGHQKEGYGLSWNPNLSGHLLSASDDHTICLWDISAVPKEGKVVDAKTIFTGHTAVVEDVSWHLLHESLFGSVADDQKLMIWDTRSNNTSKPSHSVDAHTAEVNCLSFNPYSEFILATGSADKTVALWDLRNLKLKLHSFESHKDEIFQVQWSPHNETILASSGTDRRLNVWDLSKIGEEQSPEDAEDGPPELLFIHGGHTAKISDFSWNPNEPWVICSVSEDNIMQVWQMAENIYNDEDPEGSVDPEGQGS

[3] = biological target: B2; assay: co-IP of endogenous FBXO44 in MDA-MB-231 cells, immunoblot; CRL4 components named CUL4A/CUL4B in the legend of FIG. 4A
[4] = biological target: Flag-Histone H3.1 (UniProt P68431 1-136); assay: co-IP of endogenous FBXO44 with Flag-Histone H3.1 or H3.3 (FIG. 5B)
Protocol: (§1) Immunoprecipitation or co-immunoprecipitation (IP or co-IP): for IP, cells were lysed in IP buffer (50 mM Tris-HCl [pH 7.4], 125 mM NaCl, 1 mM EDTA, 0.1% Triton X-100) with inhibitors (50 mM NaF, 1 mM PMSF, 1 mM Na₃VO₄, 1 μg/mL Aprotinin, 1 μg/mL Leupeptin, 1 μg/mL Pepstatin) followed by sonication and centrifugation to clear insoluble debris. Lysates were then incubated with protein G agarose beads and IgG antibody of the same species as the IP antibody for 2 hr at 4° C. to reduce non-specific binding. The cleared lysates were then incubated with IP antibody overnight at 4° C. Specifically, for Flag IP, 5 μg of anti-Flag antibody (Sigma-Aldrich no. F7425) was used for 2500 μg of protein lysate. For Myc IP, anti-Myc antibody (Cell Signaling Technology no. 2276) was used at 1:1000 dilution. For FBXO44 IP, 5 μL of anti-FBXO44 antibody (Sigma-Aldrich no. HPA003363) was used for 10⁶ cells. Beads were washed with IP buffer, boiled in 1×SDS gel loading buffer, and subjected to electrophoresis.

[5] = biological target: CUL1 (endogenous) (UniProt Q13616 1-776); assay: IP from chromatin fractions, immunoblot (FIG. 1F)
Sequence of CUL1 (endogenous) (Q13616 whole entry): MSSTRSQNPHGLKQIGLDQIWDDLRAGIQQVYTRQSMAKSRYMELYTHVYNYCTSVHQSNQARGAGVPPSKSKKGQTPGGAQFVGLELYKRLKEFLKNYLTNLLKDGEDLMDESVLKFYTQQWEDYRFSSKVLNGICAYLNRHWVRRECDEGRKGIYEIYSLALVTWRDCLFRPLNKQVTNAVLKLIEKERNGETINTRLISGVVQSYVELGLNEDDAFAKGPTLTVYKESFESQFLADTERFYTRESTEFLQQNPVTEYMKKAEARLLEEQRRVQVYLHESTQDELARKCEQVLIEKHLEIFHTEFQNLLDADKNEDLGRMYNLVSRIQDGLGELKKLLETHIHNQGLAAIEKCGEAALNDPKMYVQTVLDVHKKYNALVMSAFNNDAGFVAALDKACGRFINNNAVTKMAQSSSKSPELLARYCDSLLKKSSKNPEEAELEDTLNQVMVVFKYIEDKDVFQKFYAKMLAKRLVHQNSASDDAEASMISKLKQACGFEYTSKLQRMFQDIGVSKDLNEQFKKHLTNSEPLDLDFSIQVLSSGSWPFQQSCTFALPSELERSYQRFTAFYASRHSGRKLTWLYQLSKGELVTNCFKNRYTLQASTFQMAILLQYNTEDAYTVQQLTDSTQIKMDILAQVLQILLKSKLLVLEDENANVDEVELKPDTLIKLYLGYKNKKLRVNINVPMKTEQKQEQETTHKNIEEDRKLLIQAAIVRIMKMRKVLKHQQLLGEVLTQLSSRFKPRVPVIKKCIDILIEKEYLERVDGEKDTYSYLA

[6] = biological target: T3, GATAD2B (endogenous) (UniProt Q8WXI9 1-593); assay: co-IP of endogenous FBXO44, control vs SUV39H1 KD (FIG. 3I; its legend names GATAD2A)
T3 construct: also called Mi-2/NuRD component
T3 sequence (Q8WXI9 whole entry): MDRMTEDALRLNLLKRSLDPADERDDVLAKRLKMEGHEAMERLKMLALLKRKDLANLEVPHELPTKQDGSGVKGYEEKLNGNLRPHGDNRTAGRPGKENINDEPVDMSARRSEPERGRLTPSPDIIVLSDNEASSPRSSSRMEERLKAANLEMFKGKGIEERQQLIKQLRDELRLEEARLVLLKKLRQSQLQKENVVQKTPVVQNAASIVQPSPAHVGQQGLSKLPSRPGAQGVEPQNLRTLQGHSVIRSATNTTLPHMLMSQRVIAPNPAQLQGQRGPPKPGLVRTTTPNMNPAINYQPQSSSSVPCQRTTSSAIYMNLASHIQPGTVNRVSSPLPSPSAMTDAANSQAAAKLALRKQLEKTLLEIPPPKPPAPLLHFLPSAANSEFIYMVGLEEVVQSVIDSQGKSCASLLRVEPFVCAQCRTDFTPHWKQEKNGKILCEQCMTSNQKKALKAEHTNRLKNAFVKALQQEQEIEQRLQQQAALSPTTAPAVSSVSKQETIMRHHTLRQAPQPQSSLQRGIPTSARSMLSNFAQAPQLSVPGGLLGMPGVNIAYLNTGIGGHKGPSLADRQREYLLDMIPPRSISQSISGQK
Protocol: as §1
(§2) Next, to characterize FBXO44's molecular interactions with interactions with SUV39H1, CRL4RBBP4/7, and Mi-2/NuRD, Co-IP experiments were performed as described in example 3. For SUV39H1 IP, anti-SUV39H1 antibody (Millipore no. 05-615) was used at 1:100 dilution. For CUL4B IP, 2 μg of anti-CUL4B antibody (Proteintech no. 12916-1-AP) was used for 2500 μg of protein lysate. […]

[7] = biological target: T4, DDB1 (endogenous) (UniProt Q16531 2-1140); assay: co-IP of endogenous CUL4B with DDB1 (anti-CUL4B antibody), control vs FBXO44 KD cells (FIG. 3G)
T4 construct: also called CRL4 component
T4 sequence (Q16531 2-1140 limits assumed): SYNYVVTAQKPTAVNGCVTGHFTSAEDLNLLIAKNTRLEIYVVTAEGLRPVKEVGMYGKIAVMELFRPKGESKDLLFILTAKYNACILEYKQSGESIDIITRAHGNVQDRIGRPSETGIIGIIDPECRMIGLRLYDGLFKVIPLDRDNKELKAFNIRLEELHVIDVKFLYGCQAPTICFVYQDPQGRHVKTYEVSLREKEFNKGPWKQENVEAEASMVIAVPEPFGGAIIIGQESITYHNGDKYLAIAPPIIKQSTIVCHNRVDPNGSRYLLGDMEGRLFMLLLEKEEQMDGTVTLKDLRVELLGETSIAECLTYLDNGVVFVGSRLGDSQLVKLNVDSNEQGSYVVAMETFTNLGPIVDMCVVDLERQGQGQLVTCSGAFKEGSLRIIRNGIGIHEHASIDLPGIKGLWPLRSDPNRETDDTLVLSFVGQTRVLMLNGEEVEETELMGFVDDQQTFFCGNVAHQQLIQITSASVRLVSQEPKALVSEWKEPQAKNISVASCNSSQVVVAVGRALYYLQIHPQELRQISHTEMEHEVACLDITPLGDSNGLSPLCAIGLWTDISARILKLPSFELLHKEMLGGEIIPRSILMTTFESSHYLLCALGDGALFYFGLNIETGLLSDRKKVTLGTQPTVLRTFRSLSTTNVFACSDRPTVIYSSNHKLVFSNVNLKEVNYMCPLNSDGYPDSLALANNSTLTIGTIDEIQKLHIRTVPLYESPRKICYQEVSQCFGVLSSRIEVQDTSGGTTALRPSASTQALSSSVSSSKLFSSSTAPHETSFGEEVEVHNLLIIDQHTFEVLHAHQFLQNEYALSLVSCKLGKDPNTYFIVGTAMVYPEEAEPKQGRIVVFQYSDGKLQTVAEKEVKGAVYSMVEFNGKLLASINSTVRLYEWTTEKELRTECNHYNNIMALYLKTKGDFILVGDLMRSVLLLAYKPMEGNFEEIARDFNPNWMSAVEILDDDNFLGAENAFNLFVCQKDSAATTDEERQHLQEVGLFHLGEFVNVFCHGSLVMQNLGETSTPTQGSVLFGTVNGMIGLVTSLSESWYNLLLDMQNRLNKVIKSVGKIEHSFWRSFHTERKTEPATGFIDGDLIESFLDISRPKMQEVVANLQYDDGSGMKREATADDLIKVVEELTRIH
Protocol: as §1, §2

Measured: binding result

B1: FBXO44 (endogenous F-box protein FBXO44) (other, human, UniProt Q9H4M3 1-255, looked up)
chain: MAVGNINELPENILLELFTHVPARQLLLNCRLVCSLWRDLIDLVTLWKRKCLREGFITEDWDQPVADWKIFYFLRSLHRNLLHNPCAEEGFEFWSLDVNGGDEWKVEDLSRDQRKEFPNDQVKKYFVTSYYTCLKSQVVDLKAEGYWEELMDTTRPDIEVKDWFAARPDCGSKYQLCVQLLSSAHAPLGTFQPDPATIQQKSDAKWREVSHTFSNYPPGVRYIWFQHGGVDTHYWAGWYGPRVTNSSITIGPPLP
notes: Endogenous protein in cell lysates or chromatin fractions; also called FBX044
not listed: [7]
binds: all other assays above

B2
binds: [7]
